The supplement of paper PMC10065799, “High-throughput profiling of sequence recognition by tyrosine kinases and SH2 domains using bacterial peptide display” (eLife, 2023)

Experiments:
EPHB1 = EPHB1 (UniProt P54762); test: phosphorylation enrichment, bacterial display (enrichment ratio); higher = better substrate or ligand; peptides without Tyr show the background
EPHB2 = EPHB2 (UniProt P29323); test: as above
c-Src = test: as above
FGFR3 = FGFR3 (UniProt P22607); test: as above
Jak2 = Jak2 (UniProt O60674); test: as above
Chain of Jak2 (O60674 whole entry, looked up): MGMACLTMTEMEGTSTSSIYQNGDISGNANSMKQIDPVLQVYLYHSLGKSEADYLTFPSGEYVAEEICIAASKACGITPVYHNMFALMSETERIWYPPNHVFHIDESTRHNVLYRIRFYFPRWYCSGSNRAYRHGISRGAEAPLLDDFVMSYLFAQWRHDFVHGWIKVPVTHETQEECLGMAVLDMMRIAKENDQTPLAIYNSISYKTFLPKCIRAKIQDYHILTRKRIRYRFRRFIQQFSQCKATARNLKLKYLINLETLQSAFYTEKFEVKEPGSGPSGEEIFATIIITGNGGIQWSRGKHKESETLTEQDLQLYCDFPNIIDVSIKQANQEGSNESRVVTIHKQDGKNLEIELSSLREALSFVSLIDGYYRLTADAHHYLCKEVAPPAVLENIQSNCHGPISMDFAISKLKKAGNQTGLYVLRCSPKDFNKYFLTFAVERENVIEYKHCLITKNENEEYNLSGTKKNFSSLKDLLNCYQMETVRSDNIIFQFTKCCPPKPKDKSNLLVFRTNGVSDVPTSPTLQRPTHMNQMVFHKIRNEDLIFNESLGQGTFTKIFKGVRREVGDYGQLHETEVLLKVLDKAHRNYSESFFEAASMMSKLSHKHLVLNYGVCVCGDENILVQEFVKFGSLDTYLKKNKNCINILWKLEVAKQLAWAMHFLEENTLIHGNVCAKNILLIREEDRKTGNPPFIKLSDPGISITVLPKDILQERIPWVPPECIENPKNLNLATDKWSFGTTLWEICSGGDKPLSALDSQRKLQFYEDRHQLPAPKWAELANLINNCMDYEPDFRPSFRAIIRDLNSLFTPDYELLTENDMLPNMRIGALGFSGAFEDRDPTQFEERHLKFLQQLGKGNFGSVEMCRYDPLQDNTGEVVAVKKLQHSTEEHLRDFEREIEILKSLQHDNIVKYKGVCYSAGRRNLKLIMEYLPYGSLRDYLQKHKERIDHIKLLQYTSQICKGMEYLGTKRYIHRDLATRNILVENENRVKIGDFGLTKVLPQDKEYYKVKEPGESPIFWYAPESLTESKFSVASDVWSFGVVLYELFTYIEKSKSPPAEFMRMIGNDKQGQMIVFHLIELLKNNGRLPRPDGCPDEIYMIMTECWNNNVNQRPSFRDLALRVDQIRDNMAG

c-Abl (mouse) = test: as above
AncSZ = test: as above
Fer (mouse) = test: as above
Fes = Fes (UniProt P07332); test: as above
Fyn = Fyn (UniProt P06241); test: as above
Chain of Fyn (P06241 whole entry, looked up): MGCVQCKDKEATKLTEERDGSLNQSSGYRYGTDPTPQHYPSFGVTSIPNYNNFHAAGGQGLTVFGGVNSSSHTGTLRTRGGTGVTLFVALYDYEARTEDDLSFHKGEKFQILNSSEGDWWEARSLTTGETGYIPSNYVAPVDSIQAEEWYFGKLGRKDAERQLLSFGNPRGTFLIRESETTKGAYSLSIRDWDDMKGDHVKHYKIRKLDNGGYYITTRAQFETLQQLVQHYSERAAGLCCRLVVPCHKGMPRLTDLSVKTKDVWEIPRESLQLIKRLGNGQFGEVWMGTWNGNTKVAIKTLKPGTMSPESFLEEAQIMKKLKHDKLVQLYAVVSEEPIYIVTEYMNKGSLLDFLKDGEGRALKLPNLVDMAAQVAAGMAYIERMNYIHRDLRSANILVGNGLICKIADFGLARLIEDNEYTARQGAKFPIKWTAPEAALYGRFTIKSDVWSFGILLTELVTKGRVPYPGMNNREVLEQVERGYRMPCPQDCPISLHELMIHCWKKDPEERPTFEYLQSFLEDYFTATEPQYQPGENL

MERTK = MERTK (UniProt Q12866); test: as above
Chain of MERTK (Q12866 whole entry, looked up): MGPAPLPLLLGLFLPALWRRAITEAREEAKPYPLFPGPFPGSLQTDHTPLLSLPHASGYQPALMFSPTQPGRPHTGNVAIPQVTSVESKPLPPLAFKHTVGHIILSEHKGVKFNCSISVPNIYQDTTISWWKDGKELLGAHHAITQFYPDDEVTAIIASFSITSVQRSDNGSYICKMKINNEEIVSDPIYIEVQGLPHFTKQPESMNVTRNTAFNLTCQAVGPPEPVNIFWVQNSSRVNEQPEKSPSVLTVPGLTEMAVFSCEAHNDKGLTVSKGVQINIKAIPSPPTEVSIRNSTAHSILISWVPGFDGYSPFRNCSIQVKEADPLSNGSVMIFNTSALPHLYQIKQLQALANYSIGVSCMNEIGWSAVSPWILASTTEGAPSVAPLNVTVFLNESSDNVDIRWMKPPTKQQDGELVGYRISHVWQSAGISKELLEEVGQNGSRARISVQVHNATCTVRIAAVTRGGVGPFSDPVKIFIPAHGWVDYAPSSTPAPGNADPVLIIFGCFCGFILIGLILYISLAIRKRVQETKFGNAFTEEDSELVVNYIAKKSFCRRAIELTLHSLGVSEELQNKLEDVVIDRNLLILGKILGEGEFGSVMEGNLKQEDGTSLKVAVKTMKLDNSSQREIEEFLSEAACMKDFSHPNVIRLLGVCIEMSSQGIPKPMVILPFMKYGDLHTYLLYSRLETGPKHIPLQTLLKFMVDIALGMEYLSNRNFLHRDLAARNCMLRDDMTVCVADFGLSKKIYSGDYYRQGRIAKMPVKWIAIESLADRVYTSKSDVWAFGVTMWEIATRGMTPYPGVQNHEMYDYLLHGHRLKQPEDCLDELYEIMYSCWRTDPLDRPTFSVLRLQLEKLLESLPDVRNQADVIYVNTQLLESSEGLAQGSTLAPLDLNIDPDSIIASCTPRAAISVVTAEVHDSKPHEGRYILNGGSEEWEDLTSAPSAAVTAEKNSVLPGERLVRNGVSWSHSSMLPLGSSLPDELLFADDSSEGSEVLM

Hck = Hck (UniProt P08631); test: as above
Chain of Hck (P08631 whole entry, looked up): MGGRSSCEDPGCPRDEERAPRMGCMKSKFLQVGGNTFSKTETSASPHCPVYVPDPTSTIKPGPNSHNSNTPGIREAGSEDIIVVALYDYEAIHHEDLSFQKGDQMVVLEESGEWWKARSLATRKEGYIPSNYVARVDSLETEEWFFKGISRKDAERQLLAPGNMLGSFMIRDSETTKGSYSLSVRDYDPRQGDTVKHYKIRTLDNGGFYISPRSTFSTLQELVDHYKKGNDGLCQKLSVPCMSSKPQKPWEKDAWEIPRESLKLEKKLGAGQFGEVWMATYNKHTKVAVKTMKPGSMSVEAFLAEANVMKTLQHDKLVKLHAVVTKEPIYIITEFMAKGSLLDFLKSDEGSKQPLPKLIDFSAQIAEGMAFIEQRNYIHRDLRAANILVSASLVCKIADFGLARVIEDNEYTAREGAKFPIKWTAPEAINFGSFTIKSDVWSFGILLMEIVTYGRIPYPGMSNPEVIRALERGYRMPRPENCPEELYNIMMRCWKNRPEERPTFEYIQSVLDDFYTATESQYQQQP

FGFR1 = FGFR1 (UniProt P11362); test: as above
Chain of FGFR1 (P11362 whole entry, looked up): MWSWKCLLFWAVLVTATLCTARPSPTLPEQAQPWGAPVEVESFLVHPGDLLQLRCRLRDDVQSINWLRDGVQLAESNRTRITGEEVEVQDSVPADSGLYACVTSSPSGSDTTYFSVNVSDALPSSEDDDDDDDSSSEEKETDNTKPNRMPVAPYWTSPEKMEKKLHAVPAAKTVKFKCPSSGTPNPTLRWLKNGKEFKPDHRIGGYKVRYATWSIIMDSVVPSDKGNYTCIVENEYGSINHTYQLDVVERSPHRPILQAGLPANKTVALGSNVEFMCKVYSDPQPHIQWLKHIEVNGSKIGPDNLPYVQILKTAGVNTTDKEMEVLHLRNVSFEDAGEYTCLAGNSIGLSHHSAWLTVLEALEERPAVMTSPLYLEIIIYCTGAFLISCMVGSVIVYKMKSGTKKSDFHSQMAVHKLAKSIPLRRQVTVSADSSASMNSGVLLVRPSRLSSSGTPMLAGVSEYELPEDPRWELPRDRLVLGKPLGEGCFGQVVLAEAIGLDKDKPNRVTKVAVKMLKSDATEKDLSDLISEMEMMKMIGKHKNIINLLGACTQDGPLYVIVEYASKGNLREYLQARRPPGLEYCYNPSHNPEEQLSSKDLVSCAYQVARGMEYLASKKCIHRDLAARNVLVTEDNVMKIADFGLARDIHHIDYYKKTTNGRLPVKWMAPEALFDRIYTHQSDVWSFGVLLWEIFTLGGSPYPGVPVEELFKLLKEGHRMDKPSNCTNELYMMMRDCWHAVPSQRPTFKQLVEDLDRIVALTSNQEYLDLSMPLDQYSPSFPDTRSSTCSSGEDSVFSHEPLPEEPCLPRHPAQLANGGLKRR

Grb2 SH2 = Grb2 SH2 (UniProt P62993); test: SH2 binding enrichment of the phosphorylated peptide, bacterial display (enrichment ratio); higher = better substrate or ligand; peptides without Tyr show the background
SHP2-C SH2 = test: as above
c-Src SH2 = test: as above
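For SH2 binding enrichment of the phosphorylated peptide, bacterial display in this document: peptide library displayed on the E. coli surface as eCPX fusions, selected cells deep-sequenced, score is each peptide's frequency after selection divided by its frequency in the input.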
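For phosphorylation enrichment, bacterial display in this document: 11-residue human phosphosite peptides and single-mutation variants displayed on the E. coli surface, counted by deep sequencing, each peptide's frequency after selection divided by its frequency in the unselected input library; frequency after pTyr selection over input frequency; kinase dosed for 20-30% of maximal phosphorylation in three min.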

Chain of FGFR3 (P22607 whole entry, looked up): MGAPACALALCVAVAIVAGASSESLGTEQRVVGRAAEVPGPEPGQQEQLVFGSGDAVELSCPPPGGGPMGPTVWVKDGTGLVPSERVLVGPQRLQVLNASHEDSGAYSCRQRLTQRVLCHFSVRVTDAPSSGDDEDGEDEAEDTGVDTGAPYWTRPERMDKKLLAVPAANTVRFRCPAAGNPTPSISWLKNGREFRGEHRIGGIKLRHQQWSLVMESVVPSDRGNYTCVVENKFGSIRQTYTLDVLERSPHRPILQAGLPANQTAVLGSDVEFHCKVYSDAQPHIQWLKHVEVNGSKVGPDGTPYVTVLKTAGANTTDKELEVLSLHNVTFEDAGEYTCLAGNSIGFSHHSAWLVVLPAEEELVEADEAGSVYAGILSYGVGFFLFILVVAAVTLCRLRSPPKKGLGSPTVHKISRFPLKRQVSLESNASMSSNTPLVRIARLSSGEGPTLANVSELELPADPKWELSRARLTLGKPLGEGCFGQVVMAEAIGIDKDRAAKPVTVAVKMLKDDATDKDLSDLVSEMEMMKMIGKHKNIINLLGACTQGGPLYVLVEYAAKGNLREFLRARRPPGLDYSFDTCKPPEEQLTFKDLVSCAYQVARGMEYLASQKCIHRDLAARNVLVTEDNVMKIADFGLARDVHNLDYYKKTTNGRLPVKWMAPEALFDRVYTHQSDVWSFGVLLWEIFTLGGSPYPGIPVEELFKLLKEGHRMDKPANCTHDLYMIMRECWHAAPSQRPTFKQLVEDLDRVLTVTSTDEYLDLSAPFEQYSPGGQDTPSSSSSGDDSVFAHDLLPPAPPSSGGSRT

| Sequence | SH2 binding enrichment (Grb2 SH2) | SH2 binding enrichment (SHP2-C SH2) | SH2 binding enrichment (c-Src SH2) | phosphorylation enrichment (EPHB1) | phosphorylation enrichment (EPHB2) | phosphorylation enrichment (c-Src) | phosphorylation enrichment (FGFR3) | phosphorylation enrichment (Jak2) | phosphorylation enrichment (c-Abl (mouse)) | phosphorylation enrichment (AncSZ) | phosphorylation enrichment (Fer (mouse)) | phosphorylation enrichment (Fes) | phosphorylation enrichment (Fyn) | phosphorylation enrichment (MERTK) | phosphorylation enrichment (Hck) | phosphorylation enrichment (FGFR1) |
| --- | --- | --- | --- | --- | --- | --- | --- | --- | --- | --- | --- | --- | --- | --- | --- | --- |
| LMVFEYMRHGN [NTRK1_Y591_D596N] | 1.65 | 1.89 | 1.19 | 0.797 | 0.692 | 0.539 | 0.707 | 1.54 | 0.912 | 0.998 | 0.466 | 1.44 | 0.664 | 0.457 | 0.597 | 0.55 |
| LNWIYYKDQTG [RS1_Y166] | 1.38 | 1.07 | 1.18 | 1.58 | 1.35 | 1.06 | 2 | 2.21 | 1.13 | 2.25 | 0.888 | 2.51 | 1.32 | 0.787 | 1.35 | 1.4 |
| LNYNEYFRDLN [HPRT1_Y198_D194N] | 0.985 | 0.672 | 0.443 | 1.4 | 1.12 | 0.518 | 1.38 | 1.57 | 1.01 | 1.82 | 0.878 | 1.6 | 0.996 | 0.559 | 0.879 | 1.29 |
| LQEKSYIKGTS [LCTL_Y331] | 1.41 | 1.1 | 0.546 | 0.652 | 1.02 | 0.9 | 1.08 | 0.595 | 0.723 | 1.33 | 0.96 | 1.21 | 0.616 | 0.609 | 0.912 | 1.15 |
| LQLLGHRPVYS [CHST6_Y358_Y358H] | 1.22 | 0.935 | 0.733 | 0.462 | 0.47 | 0.381 | 0.506 | 0.552 | 0.418 | 0.615 | 0.479 | 0.701 | 0.535 | 0.374 | 0.512 | 0.425 |
| LRFEVYGGENE [STOX1_Y610_YF] | 0.723 | 0.842 | 0.536 | 0.56 | 0.855 | 0.5 | 0.774 | 1.29 | 0.925 | 1.15 | 0.483 | 1.55 | 0.539 | 0.454 | 0.5 | 0.621 |
| LRYDVYGGENE [STOX1_Y610_E608D] | 0.925 | 0.675 | 0.875 | 1.82 | 1.57 | 1.94 | 1.29 | 2.78 | 2.15 | 2.74 | 1.03 | 3.02 | 1.48 | 1.18 | 1.41 | 1.09 |
| LSDGPYSSPFE [EPOR_Y485_N487S_YF] | 0.507 | 0.473 | 1.02 | 0.631 | 0.53 | 0.698 | 0.715 | 0.765 | 0.468 | 1.37 | 0.465 | 0.84 | 0.786 | 0.527 | 0.684 | 0.781 |
| LSGVIYVILGK [PMP22_Y153_R157G] | 0.746 | 0.801 | 0.653 | 0.93 | 0.588 | 0.796 | 0.977 | 2.72 | 1.87 | 1.73 | 0.754 | 2.88 | 0.828 | 0.771 | 0.885 | 0.867 |
| LSIDRYHAIVF [NPSR1_Y147_YF] | 0.934 | 0.691 | 1.44 | 0.753 | 1.04 | 0.976 | 1.44 | 2.75 | 0.941 | 1.56 | 0.444 | 1.3 | 0.833 | 1.81 | 0.861 | 1.22 |
| LSQDVYEEDSY [RET_Y900_R897Q] | 1.1 | 0.555 | 0.633 | 0.966 | 1.19 | 0.856 | 1.04 | 1.76 | 1.13 | 1.53 | 0.835 | 1.71 | 0.782 | 0.584 | 0.497 | 0.695 |
| LSSISYVGCSL [ADGRD1_Y571] | 1.13 | 1.1 | 0.567 | 0.76 | 1.11 | 0.605 | 0.838 | 0.871 | 0.79 | 1.01 | 0.445 | 1.01 | 0.681 | 0.541 | 0.747 | 0.719 |
| LVKDGYQMAQP [CSF1R_Y873] | 0.874 | 1.01 | 0.634 | 0.39 | 0.392 | 0.396 | 0.527 | 0.512 | 0.691 | 0.609 | 0.462 | 0.723 | 0.357 | 0.32 | 0.499 | 0.45 |
| LYDPDYMKVIL [CYP4A22_Y104] | 0.693 | 0.73 | 0.504 | 2.9 | 2.61 | 0.988 | 1.07 | 2.27 | 1.36 | 1.96 | 1.48 | 1.54 | 0.72 | 1.51 | 0.787 | 1.54 |
| LYSDHYSPSGR [TMPRSS12_Y23] | 1.1 | 0.544 | 0.473 | 4.19 | 2.91 | 2.15 | 0.958 | 1.41 | 1.54 | 1.27 | 16.8 | 1.03 | 1.01 | 28.8 | 2.01 | 1.14 |
| MAALSYVSEIG [BPIFB2_Y36_K31M] | 0.819 | 0.857 | 0.478 | 0.397 | 0.521 | 0.431 | 0.584 | 0.804 | 0.615 | 0.642 | 0.394 | 0.733 | 0.432 | 0.371 | 0.4 | 0.447 |
| MPPHIYAITDT [MYH9_Y151] | 0.965 | 0.664 | 7.82 | 1.4 | 0.514 | 2.26 | 0.514 | 0.68 | 0.922 | 0.709 | 0.679 | 0.936 | 1.73 | 4.75 | 1.22 | 0.59 |
| MPQNEYIELHC [NSA2_Y6_R11C] | 1.06 | 0.782 | 0.683 | 1.2 | 0.862 | 0.625 | 2.58 | 0.939 | 0.658 | 1.39 | 0.557 | 1.2 | 0.615 | 0.478 | 0.626 | 3.95 |
| MRALIYNSSTA [PLEKHA7_Y243] | 0.794 | 0.486 | 0.402 | 0.507 | 0.453 | 0.724 | 0.493 | 0.8 | 0.741 | 0.834 | 0.424 | 0.772 | 0.622 | 0.465 | 0.647 | 0.448 |
| MRTMGYMPREM [CABP5_Y62_T65R] | 0.785 | 0.576 | 0.48 | 0.369 | 0.374 | 0.356 | 0.508 | 0.606 | 0.507 | 0.494 | 0.411 | 0.594 | 0.438 | 0.435 | 0.405 | 0.397 |
| MSDVPYVMNRG [ACAT1_Y161_N158D] | 1.11 | 0.617 | 0.452 | 0.4 | 0.452 | 0.439 | 0.501 | 0.652 | 0.549 | 0.669 | 0.42 | 0.68 | 0.316 | 0.348 | 0.358 | 0.403 |

Now from value to sequence, other results behind:

| SH2 binding enrichment (Grb2 SH2) | SH2 binding enrichment (SHP2-C SH2) | SH2 binding enrichment (c-Src SH2) | Sequence | phosphorylation enrichment (EPHB1) | phosphorylation enrichment (EPHB2) | phosphorylation enrichment (c-Src) | phosphorylation enrichment (FGFR3) | phosphorylation enrichment (Jak2) | phosphorylation enrichment (c-Abl (mouse)) | phosphorylation enrichment (AncSZ) | phosphorylation enrichment (Fer (mouse)) | phosphorylation enrichment (Fes) | phosphorylation enrichment (Fyn) | phosphorylation enrichment (MERTK) | phosphorylation enrichment (Hck) | phosphorylation enrichment (FGFR1) |
| --- | --- | --- | --- | --- | --- | --- | --- | --- | --- | --- | --- | --- | --- | --- | --- | --- |
| 2.16 | 2.37 | 0.829 | LLVVVYKYRCY [PSEN1_Y154_L153V] | 2.05 | 1.22 | 0.662 | 1.22 | 0.994 | 1.65 | 2 | 1.25 | 3.48 | 0.703 | 0.474 | 1.08 | 1.08 |
| 1.22 | 0.893 | 1.02 | LNPLVYTLRNA [OR4C12_Y285_V283L] | 0.712 | 1.28 | 3.54 | 1.04 | 1.1 | 1.19 | 1.05 | 0.76 | 1.51 | 2.22 | 1.21 | 1.81 | 1.01 |
| 0.9 | 1.64 | 1.32 | LNTFHYAGVSA [POLR2A_Y1109] | 0.434 | 0.415 | 0.464 | 0.56 | 0.584 | 0.552 | 0.656 | 0.469 | 0.722 | 0.419 | 0.449 | 0.45 | 0.407 |
| 2.02 | 1.82 | 1.34 | LRWREYQRQDF [PRKRIP1_Y90_R87W_YF] | 1.91 | 2.29 | 2.67 | 2.67 | 6.28 | 3.64 | 4.24 | 1.67 | 4.93 | 1.01 | 1.69 | 2.04 | 2.28 |
| 1.17 | 1.31 | 0.58 | LSDVIYVILRK [PMP22_Y153_G150D] | 0.57 | 0.55 | 0.38 | 0.684 | 1.23 | 0.617 | 1.27 | 0.398 | 1.28 | 0.414 | 0.278 | 0.391 | 0.456 |
| 0.869 | 1.65 | 0.545 | LSGFGYRLSDQ [PDCD6_Y124] | 0.64 | 0.502 | 0.558 | 0.76 | 1.09 | 0.787 | 1.02 | 0.449 | 0.977 | 0.731 | 0.474 | 0.444 | 0.787 |
| 1.29 | 0.558 | 0.368 | LSQAKYQIRYR [CRLF1_Y272_F268S] | 0.506 | 0.764 | 0.387 | 0.603 | 0.711 | 0.592 | 0.617 | 0.467 | 0.768 | 0.776 | 0.479 | 0.667 | 0.638 |
| 0.803 | 0.768 | 0.518 | MALDIYRASFF [ALK_Y1278_R1275L_YF] | 0.599 | 0.584 | 1.05 | 0.767 | 0.715 | 4.88 | 0.936 | 0.599 | 0.953 | 1.06 | 0.776 | 1.22 | 0.558 |
| 0.769 | 0.752 | 0.488 | MKALGYFAVVT [OPA1_Y498] | 0.852 | 0.773 | 0.436 | 0.996 | 1.62 | 0.892 | 1.25 | 0.655 | 1.53 | 0.63 | 0.403 | 0.825 | 0.579 |
| 0.918 | 0.804 | 1.34 | MSRDVYSIDYY [NTRK2_Y702_T704I] | 1.47 | 1.73 | 6.79 | 3.12 | 0.825 | 0.538 | 1.54 | 1.22 | 0.9 | 8.72 | 7.16 | 4 | 4.29 |
| 0.906 | 1.82 | 1.53 | MSRYIYSTDYY [NTRK1_Y676_D674Y] | 8.88 | 11.4 | 7.15 | 6.27 | 2.09 | 0.879 | 2.16 | 1.89 | 1.41 | 6.8 | 12.3 | 5.21 | 8.47 |
| 0.784 | 0.544 | 0.485 | MSSHHYDFKKF [ZNF445_Y428_YF] | 0.533 | 0.311 | 0.415 | 0.346 | 0.382 | 0.39 | 0.466 | 0.308 | 0.462 | 0.384 | 0.376 | 0.362 | 0.339 |
